As a reminder, the Kd is the equilibrium constant for the complex coming apart. Low readings indicate higher affinity, high ones lower affinity.

This assay addresses T1, cpHaloΔ9mer.
T1 construct: also called cpHalo_9mer; cpHalo156-141
The assay is described as follows: ITC; 9mer peptide (~30 mM) titrated into 0.6 mM cpHaloΔ9mer; three independent measurements; one-site model.

T1 sequence (chain, as listed by the source mutant): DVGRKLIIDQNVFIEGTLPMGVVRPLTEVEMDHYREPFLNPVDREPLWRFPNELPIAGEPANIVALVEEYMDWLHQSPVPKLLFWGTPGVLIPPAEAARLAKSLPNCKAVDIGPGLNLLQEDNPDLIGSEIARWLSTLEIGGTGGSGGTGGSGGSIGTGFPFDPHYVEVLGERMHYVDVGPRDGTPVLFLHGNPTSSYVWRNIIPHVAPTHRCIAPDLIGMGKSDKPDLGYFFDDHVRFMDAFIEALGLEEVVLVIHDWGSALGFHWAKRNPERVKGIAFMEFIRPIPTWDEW
Method: Heat of dilution of the peptide was subtracted prior to the analysis. Kd was calculated from three independent measurements, error represents standard deviation.
This maximal concentration of peptide was titrated against a 0.6 mM cpHaloΔ9mer (FIG. 1).

B1: 9mer peptide (peptide)
peptide: ARETFQAFR
notes: Free peptide titrated in the ITC assay; also called PEP1
On to B1, for which the Kd came out at 5.3 mM.
